Read-outs that look alike come from different tables or passages of the source.
Key:
[1] = tested on: alkaline phosphatase (ALP); details: 10 μM in PBS, 10 min at 10000 rpm
Method: Samples of 5 (10 μM in PBS) with or without ALP treatment were centrifuged with Amicon centrifugation devices (molecular cutoff 50 kDa). […] Solutions collected in the bottom or top tube for the sample that underwent enzyme treatment were analyzed with absorption spectroscopy (FIG. 5).

[2] = target: T1, alkaline phosphatase (ALP) (Bos taurus, UniProt P19111); test: Enzymatic cleavage of 5 by ALP monitored by reverse-phase HPLC; assay type: biochemical, bovine; details: 200 μM in PBS, 2 U/mL ALP, 37° C., 6-hour incubation
T1 construct: Alkaline phosphatase from bovine intestinal mucosa was purchased from Sigma-Aldrich; purchased Sigma-Aldrich; host or cells: bovine intestinal mucosa (tissue-derived)
Method: The enzymatic cleavage was monitored with reverse-phase high performance liquid chromatography. A solution of 200 μM 5 in PBS was treated with 2 U/mL ALP and incubated at 37° C. A small part of sample was taken from the reaction at different time points (30 min, 1 h, 2 h, 4 h, 6 h and 8 h) and was analyzed by HPLC (5-95% MeCN/10 mM NH4HCO3 in H2O) (FIG. 7). The 3 peaks in the chromatograph after 30 min of ALP treatment represents compound 5 (peak 1), partially cleaved product (peak 2) and fully cleaved product (peak 3). The reaction almost completes after 6-hour incubation (>95% by integration). The LC trace of the standard dephosphorylated sample 5′ is shown for comparison. Attempts were made to get LC-MS data for 5 but no mass signal was detected. This might result from the poor solubility of 5 in the acidic mobile phase (MeCN/H2O, 0.1% FA).
Reverse phase high performance liquid chromatography. A solution of 200 μM 5 in PBS was treated with 2 U/mL ALP and incubated at 37° C. A small part of sample was taken from the reaction at different time points (30 min, 1 h, 2 h, 4 h, 6 h and 8 h) and was analyzed by RP-HPLC with an Agilent Zorbax SB-C18 column (5 μm, 4.6×150 mm). The sample was run for 15 min with a linear gradient (5-95% MeCN/10 mM NH4HCO3 in H2O) and detected with a diode-array detector at 420 nm.

[3] = target: T1, alkaline phosphatase (ALP); test: Enzymatic assay of 5 with alkaline phosphatase, aggregation followed by absorption spectroscopy; assay type: biochemical, bovine
Method: The stock solution of 5 in DMSO was diluted with PBS to prepare sample solutions with different concentrations (0.10 μM, 0.20 μM, 0.50 μM, 1.0 μM, 2.0 μM, and 5.0 μM). Each sample was treated with 2 U/mL of alkaline phosphatase (ALP) and incubated overnight at 37° C. The absorption spectra across the range 300-700 nm, where the porphyrin absorbs strongly, were measured before and after the enzyme treatment for each sample (FIG. 4, panels A-F). For samples with concentration lower than 0.50 μM (FIG. 4, panels A, B), the intensity of the Soret band of 5 at 420 nm decreased after enzyme treatment, yet precipitation or other signs of aggregation were not observed. When the concentration of the sample was equal to or higher than 0.50 μM (FIG. 4, panels C-F), the intensity of the Soret peak at 420 nm decreased and a new peak appeared at 455 nm after the enzyme treatment. The new peak at 455 nm indicates the aggregation of the sample upon the treatment of ALP. The Q band (at ˜550 nm) also underwent a bathochromic shift and broadening, albeit of lesser magnitude than that of the higher-energy Soret band. Compound 5′, which lacks the two phosphoester moieties, is prone to aggregation in PBS, consistent with the observed results for ALP treatment of 5. The change in the color of the sample was also observed. After the overnight incubation, the color of the sample changed from pink to orange.
To confirm that the peak appeared after enzyme treatment was caused by aggregation, DMSO was added to the sample of 5 (5.0 μM in PBS) after enzyme treatment to disaggregate the sample. After adding DMSO to dilute the solution in half, the peak at 455 nm almost disappeared and the intensity of the peak at 420 nm increased. Color changes of the solution were observed during the treatment, with the solution appearing pink initially (indicating a monomeric state), then yellow after treatment with ALP (indicating aggregation), and finally returning to pink after dilution with DMSO, albeit a lighter pink than the initial solution, due to dilution (indicating disaggregation). The result further confirmed that compound 5 aggregates in aqueous solution after the enzyme treatment.
Enzymatic assay. The stock solution of 5 in DMSO (2 mM) was diluted with PBS to prepare sample solutions with different concentrations. The final concentrations of 5 in each sample were 0.20 μM, 0.50 μM, 1.0 μM, 2.0 μM, 5.0 μM and 10 μM, respectively. A solution of alkaline phosphatase from bovine intestinal mucosa (10 μL, 100 U/mL in PBS) was added to each sample solution to reach a final volume of 500 μL (PBS containing 0.5% DMSO). The reaction mixture was incubated overnight at 37° C. Then each sample was analyzed by absorption spectroscopy. Samples without the treatment of ALP were also analyzed to serve as controls.
To confirm the aggregation of the dephosphorylated 5 in PBS, 500 μL of DMSO was added to one of the treated samples (10 μM) and was then analyzed by absorption spectroscopy.

[4] = Absorption spectroscopy in PBS or DMSO (solubility / aggregation); assay type: physicochemical; details: PBS; absorption spectra 0.1-100 μM; read-out: soluble in PBS with essentially no aggregation or assembly
Method: Samples of 5′ at 1 μM in DMSO or PBS were analyzed by absorption spectroscopy (FIG. 8, panel A). […] In PBS, two broad peaks at 417 nm and 455 nm were observed, indicating aggregation of the sample at 1 μM. Samples of 4′ at 1 μM in DMSO or PBS were also analyzed for comparison (FIG. 8, panel B). The spectrum of the sample in DMSO was identical with 5′, while in PBS the Soret band spilt into 3 broad peaks at 409 nm, 419 nm and 455 nm. The different spectra between 4′ and 5′ might result from different ways of porphyrin stacking, as 4′ doesn't have the long PEG chain in its structure.
Samples of 0.1 μM, 1 μM, 10 μM and 100 μM were analyzed using cuvettes with a pathlength of 10 cm, 1 cm, 0.1 cm and 0.01 cm, respectively. There is only a very slight broadening of the absorption bands at 100 μM, and at all concentrations the general spectroscopic features characteristic of the porphyrin are retained.

[5] = Fluorescence spectroscopy of aggregation (intensity in PBS vs DMSO); assay type: physicochemical; details: 316 nM in PBS; incomplete aggregation
Method: Aggregation of 5′ at low concentrations was analyzed by fluorescence spectroscopy. The ratio of maximum fluorescence intensity of samples in PBS to that of sample in DMSO was plotted against concentration (FIG. 9). The ratio decreased as the concentration increased in the range of 1.0 nM to 316 nM, which implies that 5′ aggregates more in PBS as the concentration increases. Even with the concentration of 316 nM, the sample didn't aggregate completely in PBS and retained ˜30% fluorescence. The long PEG chain in 5′ provides the compound with good hydrophilicity and may contribute to incomplete aggregation. Fluorescence intensity at higher or lower concentrations was not measured due to the detection range of the instrument. The porphyrin-peptide conjugate without PEG chain, 4′, was examined by fluorescence intensity as well. Samples at 31.6 nM, 100 nM, and 316 nM were analyzed and the fluorescence intensity ratio of all samples was below 2%. The results imply that 4′ almost aggregates completely even at a very low concentration.
Fluorescence spectroscopy. Samples were dissolved in PBS and DMSO at different concentrations. The excitation wavelength was 419 nm for all samples in DMSO, 415 nm for 5′ in PBS, and 419 nm for 4′ in PBS. The intensity ratio was calculated with the maximum emission of each sample. […]

T1 sequence (P19111 20-506 limits assumed): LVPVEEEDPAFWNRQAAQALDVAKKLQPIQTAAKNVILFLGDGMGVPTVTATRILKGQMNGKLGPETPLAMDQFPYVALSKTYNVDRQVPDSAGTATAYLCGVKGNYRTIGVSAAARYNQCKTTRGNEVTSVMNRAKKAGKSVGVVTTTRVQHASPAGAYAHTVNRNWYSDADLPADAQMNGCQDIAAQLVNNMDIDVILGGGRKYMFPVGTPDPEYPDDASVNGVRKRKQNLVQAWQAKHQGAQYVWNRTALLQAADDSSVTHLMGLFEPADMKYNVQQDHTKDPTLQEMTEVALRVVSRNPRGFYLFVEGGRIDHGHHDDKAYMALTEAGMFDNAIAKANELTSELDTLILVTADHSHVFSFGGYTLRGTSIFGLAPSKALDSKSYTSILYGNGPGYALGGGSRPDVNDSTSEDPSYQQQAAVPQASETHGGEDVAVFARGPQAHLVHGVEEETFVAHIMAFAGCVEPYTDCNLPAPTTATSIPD

Molecule | passage through 50 kDa membrane ([1]; after ALP treatment) | passage through 50 kDa membrane ([1]; without ALP treatment) | completion of dephosphorylation reaction by HPLC integration [2] [%] | behaviour of activated form at very low concentration ([3]; 0.1 μM) | concentration at which new peak at 455 nm (aggregation) appears after enzyme treatment ([3]; PBS with 0.5% DMSO, 2 U/mL ALP, overnight 37° C.) [nM] | reversibility of aggregation ([3]; after ALP treatment in PBS, upon addition of DMSO) | precipitation after high-speed centrifugation or long-time storage ([3]; after ALP treatment, centrifugation >10000 rpm or storage >1 month) | formation of microcrystals or precipitates upon ALP treatment ([3]; concentration as high as 200 μM) | solubility [4] [µM] | fluorescence retained in PBS (relative to DMSO) [5] [%]
COCCOCCOCCOCCOCCOCCOCCOCCOCCOCCOCCOCCOCCOCCOCCOCCOCCOCCOCCOCCOCCOCCOCCOCCn1cc(-c2ccc(-c3c4nc(cc5ccc([nH]5)c(-c5c(OCc6cn(CCC(=O)NCC(=O)N[C@H](Cc7ccccc7)C(=O)N[C@H](Cc7ccccc7)C(=O)N[C@@H](Cc7ccc(OP(=O)(O)O)cc7)C(=O)O)nn6)cccc5OCc5cn(CCC(=O)NCC(=O)N[C@H](Cc6ccccc6)C(=O)N[C@H](Cc6ccccc6)C(=O)N[C@@H](Cc6ccc(OP(=O)(O)O)cc6)C(=O)O)nn5)c5nc(cc6ccc3[nH]6)C=C5)C=C4)cc2)nn1 [Compound 5, PEG24-GffY(p)-OH] | didn't pass through the membrane | passed through the 50 kDa membrane | > 95 | came out of solution without forming a gel superstructure | ≥ 500 | reversible | No precipitation or microcrystals were observed | did not form microcrystals or precipitates | ≥ 100 | 
PEG24-GffY-OH [Compound 5′] |  |  |  |  |  |  |  |  |  | ~30

Reference: patent publication US20250009913A1, “COMPOUNDS FOR USE IN NON-COVALENT SCAFFOLD AND METHODS RELATED THERETO” (NORTH CAROLINA STATE UNIVERSITY, priority 2023, published 2025)
